From PMC5818060, “A CK1 FRET biosensor reveals that DDX3X is an essential activator of CK1ε” (Journal of Cell Science, 2018)
Ends that are not written are not given here. * marks the point of attachment. Biotin = O=C1N[C@H]2[C@H](CS[C@H]2CCCCC(=O)*)N1

B1: CK1δ-derived peptide δ-141 (peptide)
peptide: Biotin-SGSGKGNLVYIIDFGLAKK
notes: four amino acid spacer between biotin and the peptide; casein kinase 1 delta (CK1δ), human, UniProt P48730; source: synthetic peptide (peptide library), pre-dissolved in DMSO; not shown: biotin, N-terminal, kept
B2: CK1δ-derived peptide δ-91 (peptide)
peptide: Biotin-SGSGDLFNFCSRKFSLKTV
notes: as for B1
B3: CK1ε-derived peptide ε-241 (peptide)
peptide: Biotin-SGSGCKGYPSEFSTYLNFC
modifications: cysteine pairing not given here
notes: four amino acid spacer between biotin and the peptide; casein kinase 1 epsilon (CK1ε), human, UniProt P49674; source: synthetic peptide (peptide library), pre-dissolved in DMSO; not shown: biotin, N-terminal, kept
B4: CK1δ-derived peptide δ-31 (peptide)
peptide: Biotin-SGSGAGEEVAIKLECVKTK
notes: as for B1
B5: CK1δ-derived peptide δ-231 (peptide)
peptide: Biotin-SGSGKKMSTPIEVLCKGYP
notes: as for B1
B6: CK1ε-derived peptide ε-61 (peptide)
peptide: Biotin-SGSGGGVGIPSIKWCGAEG
notes: as for B3
B7: CK1ε-derived peptide ε-41 (peptide)
peptide: Biotin-SGSGCVKTKHPQLHIESKF
notes: as for B3
B8: CK1δ-derived peptide δ-1 (peptide)
peptide: Biotin-SGSGMELRVGNRYRLGRKI
notes: four amino acid spacer between biotin and the peptide; casein kinase 1 delta (CK1δ), human, UniProt P48730; also called P1; source: synthetic peptide (peptide library), pre-dissolved in DMSO; not shown: biotin, N-terminal, kept
B9: CK1ε-derived peptide ε-1 (peptide)
peptide: Biotin-SGSGMELRVGNKYRLGRKI
notes: four amino acid spacer between biotin and the peptide; casein kinase 1 epsilon (CK1ε), human, UniProt P49674; differs from δ-1 only by K for R in the middle of the peptide; source: synthetic peptide (peptide library), pre-dissolved in DMSO; not shown: biotin, N-terminal, kept
B10: HA-CK1ε (enzyme, human, UniProt P49674 1-416, looked up)
chain: MELRVGNKYRLGRKIGSGSFGDIYLGANIASGEEVAIKLECVKTKHPQLHIESKFYKMMQGGVGIPSIKWCGAEGDYNVMVMELLGPSLEDLFNFCSRKFSLKTVLLLADQMISRIEYIHSKNFIHRDVKPDNFLMGLGKKGNLVYIIDFGLAKKYRDARTHQHIPYRENKNLTGTARYASINTHLGIEQSRRDDLESLGYVLMYFNLGSLPWQGLKAATKRQKYERISEKKMSTPIEVLCKGYPSEFSTYLNFCRSLRFDDKPDYSYLRQLFRNLFHRQGFSYDYVFDWNMLKFGAARNPEDVDRERREHEREERMGQLRGSATRALPPGPPTGATANRLRSAAEPVASTPASRIQPAGNTSPRAISRVDRERKVSMRLHRGAPANVSSSDLTGRQEVSRIPASQTSVPFDHLGK
notes: casein kinase 1 epsilon (CK1ε), human, UniProt P49674; The methods name a pCS-based vector with N-terminal HA tag for human cell culture work; also called bead-coupled HA-CK1ε; casein kinase 1 epsilon; source: bead-coupled; not shown: HA, N-terminal, kept

Columns and labels:
Settings in all cases: both partners purified
[1] = target: T1, His-DDX3X^414-582 (human, UniProt O00571 414-582); experiment: ELISA; His-DDX3X^414-582 coated on MaxiSorp plates (0.01 µg/µl, 100 mM sodium carbonate pH 9.6, 4°C overnight); biotinylated peptides 1 µg/well, 2.5 h at room temperature; detection with HRP-streptavidin
T1 construct: DEAD box RNA helicase 3 X-linked (DDX3X), human, UniProt O00571, C-terminal helicase domain, aa 414-582; Named without the His tag in the BLItz methods; also called C-terminal helicase domain of DDX3X; source: dialyzed in 50 mM HEPES pH 8 for ELISA and FTS
T1 sequence (O00571 414-582): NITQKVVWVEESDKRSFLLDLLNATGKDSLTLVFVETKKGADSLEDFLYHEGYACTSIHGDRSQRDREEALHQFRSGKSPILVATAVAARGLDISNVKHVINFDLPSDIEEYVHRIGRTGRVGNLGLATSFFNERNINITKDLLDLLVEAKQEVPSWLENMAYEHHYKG

[2] = target: T1, His-DDX3X^414-582; experiment: fluorescence thermal shift (FTS) assay; 10 µM His-DDX3X^414-582, 20 µM peptide, 50 mM HEPES pH 8, 10x SYPRO-Orange; change of melting temperature
[3] = target: T1, His-DDX3X^414-582; experiment: fluorescence thermal shift (FTS) assay; FTS with varying concentrations of peptide; melting temperatures fitted to single site or simple cooperative ligand binding, preferred model chosen
[4] = target: T2, Flag-DDX3X (human, UniProt O00571 1-662); experiment: pull-down; purified Flag-DDX3X proteins, incubated with total RNA where indicated, subjected to bead-coupled HA-CK1ε; Western blot
T2 construct: DEAD box RNA helicase 3 X-linked (DDX3X), human, UniProt O00571, full length; pCS-based vector with N-terminal Flag tag; purification as in Cruciat et al., 2013; also called wild-type DDX3X; DDX3X WT; source: HEK293T, transfected, purified on Flag beads (high-salt wash, eluted with Flag peptide); not shown: Flag, N-terminal, kept
T2 sequence (O00571 whole entry): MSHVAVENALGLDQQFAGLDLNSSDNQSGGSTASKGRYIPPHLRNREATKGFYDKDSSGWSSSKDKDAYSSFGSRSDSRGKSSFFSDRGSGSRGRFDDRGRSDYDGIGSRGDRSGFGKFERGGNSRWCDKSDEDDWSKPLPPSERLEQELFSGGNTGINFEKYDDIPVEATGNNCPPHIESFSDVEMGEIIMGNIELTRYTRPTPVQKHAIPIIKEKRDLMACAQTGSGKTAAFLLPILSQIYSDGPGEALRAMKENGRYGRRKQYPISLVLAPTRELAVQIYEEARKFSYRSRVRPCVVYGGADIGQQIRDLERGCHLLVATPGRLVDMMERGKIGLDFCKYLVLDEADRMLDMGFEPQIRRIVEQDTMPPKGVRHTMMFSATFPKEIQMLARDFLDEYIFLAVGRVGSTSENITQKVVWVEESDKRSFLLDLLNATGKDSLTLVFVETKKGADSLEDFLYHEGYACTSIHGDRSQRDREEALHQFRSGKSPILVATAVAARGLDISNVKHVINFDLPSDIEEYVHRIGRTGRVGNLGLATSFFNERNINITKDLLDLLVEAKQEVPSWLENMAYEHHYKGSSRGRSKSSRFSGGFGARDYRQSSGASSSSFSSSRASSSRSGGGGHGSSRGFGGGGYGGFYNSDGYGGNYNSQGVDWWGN

Binder | binding result [1] | increase of the melting temperature (Tm) of His-DDX3X^414-582 [2] [°C] | further results
B1 | binds | – | –
B2 | binds | – | –
B3 | binds | – | –
B4 | binds | – | –
B5 | binds | – | –
B6 | binds | – | –
B7 | – | 6.3 | –
B8 | – | 3.5 | Kd [3]: 15.6 µM
B9 | – | 4.6 | –
B10 | – | – | binding result [4]: binds
